How the values were obtained:
[1] = target: recombinant human PD-1 protein (residues 21-167) (human) (UniProt Q15116); test: ELISA; blocking: plates coated with 0.5 ug/mL PD-1 (21-167); antibody from 3 ug/mL, 1.5-fold dilutions, 37 °C 120 min; then 1 ug/mL PD-L1-mFc, detected with HRP-anti-mouse Fc
[2] = target: T1, human PD-1 extracellular domain (residues 21-167) (Homo sapiens, UniProt Q15116, N-linked glycans seen at N49, N58 and N116 (N58: two N-acetylglucosamines, one fucose and two mannoses; N49 and N116: one N-acetylglucosamine modelled); N74 ambiguous); test: crystal structure; PD-1 (21-167) and MW11-h317 Fab mixed 1:2, complex purified on Superdex 200; crystals at 16 °C in 0.1 M Bis-Tris pH 6.5, 28% PEG monomethyl ether 2000; 2.9 Å; two complexes per asymmetric unit; details: both partners purified
T1 construct: Construct used for the complex with MW11-h317 Fab and its crystal structure; also called hPD-1; Programmed cell death protein 1; source: CHO cells, electrotransfected; purified from supernatant by a nivolumab-coupled resin
T1 sequence (Q15116 21-167): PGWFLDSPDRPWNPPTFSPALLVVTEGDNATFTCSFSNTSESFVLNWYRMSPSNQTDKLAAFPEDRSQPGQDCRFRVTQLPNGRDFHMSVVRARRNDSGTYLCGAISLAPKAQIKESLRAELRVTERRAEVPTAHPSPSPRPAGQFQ

Chain of recombinant human PD-1 protein (residues 21-167) (human) (Q15116 21-167): as above

B1: MW11-h317 (humanized anti-PD-1 monoclonal antibody) (antibody, V domains shown)
VH: EVQLVESGGGLVKPGGSLRLSCAASGFTFSSYDMSWVRQAPGKGLEWVATISGGGSYTYYPDSVKGRFTISRDNAKNSLYLQMNSLRAEDTAVYYCASPDSSGVAYWGQGTLVTVSS
VL: DIVMTQSPLSLPVTPGEPASITCKASQDVETVVAWYLQKPGQSPRLLIYWASTRHTGVPDRFSGSGSGTDFTLKISRVEAEDVGVYYCQQYSRYPWTFGQGTKLEIK
[1]
  IC50: 1.4 nM

B2: MW11-h317 Fab (Fab, V domains shown)
VH: B1 VH
VL: B1 VL
notes: heavy chain of the Fab in the structure deposited here (PDB 6JJP); light chain of the Fab in the structure deposited here (PDB 6JJP); The methods speak of plasmids encoding VL and VH; also called MW11-h317 Fab fragment; source: HEK 293, co-transfected with two plasmids; purified from supernatant (Protein G, HiTrap Capto S)
[2]
  stoichiometry N: 1

— PMC6814707 (Communications Biology, 2019)
